We go through 1 substance from publication PMC7717172.

The target in the test is inactive Minerva virus protease (norovirus GII.4 NS6 protease, C139A) (norovirus GII.4 (Minerva virus)). The experiment in a line: crystal structure.

“inactive Minerva virus protease (norovirus GII.4 NS6 protease, C139A) (enzyme)” gave a stoichiometry N of 2.
